Data published in publication PMC4253670 (Biochemical and biophysical research communications, 2014).
“Also recorded” adds a separate entry of the source. Where no end group is shown, it is not given here.

What was measured:
MPO [1] = target: T1, MPO (Homo sapiens, UniProt P05164); assay: Direct binding ELISA of HPLC-purified peptides; settings: 24-mer P18, 21-mers of P18, P48, P76, negative controls P28 and P61, mean ± SEM, n = 4 wells, p<0.05, figure 3B
MPO [2] = target: T1, MPO; assay: Peptide screening, direct binding ELISA of 87 overlapping Cp peptides; settings: combined data of 87 ELISA plates; 24-mers not HPLC-purified; figure 2A
Cp = settings: oxidation of ferrous ions and removal of peroxides; ref [14]; cited from earlier work
MPO [3] = target: T1, MPO; assay: Surface plasmon resonance, immobilized MPO; settings: read-out: binding affinity (Kd); MPO immobilized on CM5 chip via -NH2; Cp 1 to 200 nM; Biacore3000, 30 μl/min; Biaevaluation software
MPO [4] = settings: ref [14]; cited from earlier work

T1 sequence (P05164 279-745 limits assumed): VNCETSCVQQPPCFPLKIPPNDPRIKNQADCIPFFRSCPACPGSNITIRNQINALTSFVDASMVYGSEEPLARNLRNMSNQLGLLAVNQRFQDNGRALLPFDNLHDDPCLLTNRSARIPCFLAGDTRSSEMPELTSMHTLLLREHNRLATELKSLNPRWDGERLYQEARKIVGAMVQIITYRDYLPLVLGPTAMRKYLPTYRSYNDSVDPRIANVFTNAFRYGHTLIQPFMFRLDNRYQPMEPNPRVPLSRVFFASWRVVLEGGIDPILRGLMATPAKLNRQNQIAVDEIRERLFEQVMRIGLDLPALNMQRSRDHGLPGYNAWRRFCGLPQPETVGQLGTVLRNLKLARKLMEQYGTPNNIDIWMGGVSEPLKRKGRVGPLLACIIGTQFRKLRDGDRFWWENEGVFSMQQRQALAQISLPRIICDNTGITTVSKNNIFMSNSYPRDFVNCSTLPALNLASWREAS
T1 sequence (P05164 165-273 limits assumed): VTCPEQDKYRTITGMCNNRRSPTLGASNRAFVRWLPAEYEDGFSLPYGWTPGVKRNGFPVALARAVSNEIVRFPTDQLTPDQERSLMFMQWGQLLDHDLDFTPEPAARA

Molecule: VVDENFSWYLEDNIKTYCSEPEKV [P18]
- binding of MPO to HPLC-purified surface-adsorbed peptide (MPO [1]): bound more MPO than its shorter, 21-mer version; also recorded: bound more MPO than P76
- peptide-MPO to Cp-MPO absorbance ratio (MPO [2]): two major peaks

B1: Cp: Purified human Cp (Vital Products), copper-containing ferroxidase (protein)
chain: KEKHYYIGIIETTWDYASDHGEKKLISVDTEHSNIYLQNGPDRIGRLYKKALYLQYTDETFRTTIEKPVWLGFLGPIIKAETGDKVYVHLKNLASRPYTFHSHGITYYKEHEGAIYPDNTTDFQRADDKVYPGEQYTYMLLATEEQSPGEGDGNCVTRIYHSHIDAPKDIASGLIGPLIICKKDSLDKEKEKHIDREFVVMFSVVDENFSWYLEDNIKTYCSEPEKVDKDNEDFQESNRMYSVNGYTFGSLPGLSMCAEDRVKWYLFGMGNEVDVHAAFFHGQALTNKNYRIDTINLFPATLFDAYMVAQNPGEWMLSCQNLNHLKAGLQAFFQVQECNKSSSKDNIRGKHVRHYYIAAEEIIWNYAPSGIDIFTKENLTAPGSDSAVFFEQGTTRIGGSYKKLVYREYTDASFTNRKERGPEEEHLGILGPVIWAEVGDTIRVTFHNKGAYPLSIEPIGVRFNKNNEGTYYSPNYNPQSRSVPPSASHVAPTETFTYEWTVPKEVGPTNADPVCLAKMYYSAVEPTKDIFTGLIGPMKICKKGSLHANGRQKDVDKEFYLFPTVFDENESLLLEDNIRMFTTAPDQVDKEDEDFQESNKMHSMNGFMYGNQPGLTMCKGDSVVWYLFSAGNEADVHGIYFSGNTYLWRGERRDTANLFPQTSLTLHMWPDTEGTFNVECLTTDHYTGGMKQKYTVNQCRRQSEDSTFYLGERTYYIAAVEVEWDYSPQREWEKELHHLQEQNVSNAFLDKGEFYIGSKYKKVVYRQYTDSTFRVPVERKAEEEHLGILGPQLHADVGDKVKIIFKNMATRPYSIHAHGVQTESSTVTPTLPGETLTYVWKIPERSGAGTEDSACIPWAYYSTVDQVKDLYSGLIGPLIVCRRPYLKVFNPRRKLEFALLFLVFDENESWYLDDNIKTYSDHPEKVNKDDEEFIESNKMHAINGRMFGNLQGLTMHVGDEVNWYLMGMGNEIDLHTVHFHGHSFQYKHRGVYSSDVFDIFPGTYQTLEMFPRTPGIWLLHCHVTDHIHAGMETTYTVLQNEDTKSG
- effect of MPO binding on antioxidant activities of Cp (Cp): does not inhibit important antioxidant activities of Cp
- Kd (MPO [3]): 30 nM
- binding to and inhibition of myeloperoxidase (MPO [4]): bind and inhibit myeloperoxidase (MPO)
